# Laboratory results reported in the nanobody polyreactivity screen of Harvey et al. (2022).
# Assay: yeast display, Sf9 membrane polyspecificity reagent, FACS + sequencing; frameworks hold sequencing errors
# Method in brief: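 After 36–48 hours of galactose induction, yeast (Saccharomyces cerevisiae BJ5465) displaying a synthetic nanobody library were stained at 4 °C for 1 hour with 10% biotinylated, detergent-solubilized Sf9 membrane reagent. Streptavidin microbeads enriched the stained cells before FACS sorting into low and high (top ~1%) gates on anti-HA and streptavidin fluorescence. Each clone's polyreactivity label reflects its gate of origin.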
row,Sequence,polyreactivity (PSR sort gate)
1,QVQHVESGGGLVQAGGSLRLSCAASGRTFPLNAMGWYRQAPGKERELVYAITWSGGRTYYADSVKGRFTISRDYAKNTVYLQMNSLKPEDTAVYYCAAKRTTWKIQSGYDYWGQGTQVTVSS,low polyreactivity
2,QVQLVESGGGLVQAGGSLRLSCAASGSTFGGYAMGWYRQAPGKERELVADIDSIGGSTYYADSVKGRFTISRDNAKNTVYLQMNSLKPEDTAVYYCAARRFDTALVLYDYWGQGTQVTVSS,low polyreactivity
3,QVQLVESGGGLVQAGGSLRLSCAASGRVFSTNAMGWYRQAPGKERELVAGINSGGSTNYADSVKGRFTISRDNAKNTVSLQMNSLKPEDTAVYYCNATLRVESWYVHYGVDYDYWGQGTQVTVSS,low polyreactivity
4,QVQLVESGGGLVQAGGSLRLSCAASGRTFDSYTMGWYRQAPGKERELVARIRWSGGSTYYADSVKGRFTISRDNAKNTVYLQMNSLKPEDTAVYYCAVYQYVGYTMDYWGQGTQVTVSS,low polyreactivity
5,QVQLVESGGGLVQAGGSLRLSCAASGFTFIKYAMGWYRQAPGKEREFVSTISWNGGNTYYADSVKGRFTISRDNAKNTVYLQINSLKPEDTAVYYGAARVKYRTRGGTVVSYDYWGQGTQVTVSS,high polyreactivity
6,QVQVVESGGGLVQAGGSLGLSCAASGSIFGTNAMGWSRQAPGKERELVAAISSSGTSTYYADSVKGRFTISRDKAKNTDYLQMNSLKPEDTAVYYCAAATNWGGEYWGQGTQVTVSS,high polyreactivity
7,QVQLVESGGGLVQAGGSLRLSCAASGSTFNRNGMGWYRQAPGKERELVAAISRSTTSTYYADSVKGRFTISRDNAKNTVYLQMNSLKPEDTAVYYCATPHRYRVDYWGQGTQVTVSS,high polyreactivity
8,QVQLVESGGGLVQAGGSLRLSCAASGFTFIGYAMGWYRQAPGKERELVAAITQSGGSTFYADSVKGRFTISRDNAKNTVYLQMNSLKPEDTAVYYCNAYRKFRYWGQGTQVTVSS,low polyreactivity
9,QVQLVESGGGLVQAGGSLRLSCAASGITFAYNAMGWYRQAPGKERELVAAITTGGDTYYADSVKGRFTISRDNAKNTVYLQMNSLKPEDTAVYYCAATPTYWYLWSPYDYWGQGTQVTVSS,low polyreactivity
10,QVQLVESGGGLVQAGGSLRLTCAASGFIFAHYAMGWYRQAPGKERELVAAISSRGGSTYYADSVKGRFTISRDNAKNTVYLQMNSLKPEDTAVYYCAKARHRPARGYEYWGQGTQVTVSS,high polyreactivity
11,QVQLVESGGGLVQAGGSLRLSCAPSRRIFRSYAMGWYSQAPGKERELVAAISSRGSTYYADSVKGRFTISRDNEKNTVFLQMNSLKPEDTAVYYCAVHLWVYPLKREFYWGQGTQVTVSS,high polyreactivity
12,QVQLVESGGGLVQAGGSLRLSCDASGSTFTGYAMGWYRQAPGKERELVAAISRSGGSTSYADSVKGRFTISRDNAKNTVYLQMNSLKPEDTAGYYCAAQVQGTTRAKQRGGIGELDYWGQGTQVTVSS,low polyreactivity
13,QVQLVESGGGLVQAGGSLRLSCAASGRIFAYYAMGWYRQAPGKERELVATITRGGNTNYADSVKGRFTISRDNAKNTVYLQMNSLKPEDTAVYYCNRRYSRWGIYDYWGQGTQVTVSS,high polyreactivity
14,QVQLVESGGGLVQAGGSLRLSCAASGNIFYSYAMGWYRQAPGKERELVAAISSSGGGTYYADSVKGRFTISRDNAKNTVYLEMNSLKPEDTAVYYCATTARPTRYSSVRYYYWGQGTQVSVSS,high polyreactivity
15,QVQLVESGGGLVQAGGSLRLSCAASGITIRRYAMGWYRQAPGKERELVAAITYSGGGSTYYADSVKGRFTISRDNAKNTVYLQMNSLKPEDTAVYYCAAGWYPWGYYSGYISYEYWGQGTQVTVSS,high polyreactivity
16,QVQLVESGGGLGQAGGSLRLSCAASGSIFGRYTMGWYRQAPGKERELVAAITLRGGSTYYADSVKGRFTISRDNAKNTVYLQMNSLKPEDTAVYYCATDGWKQSAYDYWGQGTQVTVSS,low polyreactivity
17,QGQLVESGGGLVQAGGSLRLSCAASGITVGVYARGRYRQEPGKEREFVADIDRTGGSTYAVSVKGRFTISRDIAKNTVYLQMNSLKPEDTAVYYCAAGWGFRFYYWYWGQGTQVTVSS,high polyreactivity
18,QVQLVESGGGLVQAGGSLRLSCAASGIIFDGYAMGWYRQAPGKERELVAAISGHGGSTYYADSVKGRFTISRDNAKNTVYLQMNSLKPEDTAVYYCAAEYVYWRIGQYDYWGQGTQVTVSS,high polyreactivity
19,QVQLVESGGGLVQAGGSLRLSCAASGSILYTYAMGWYRQAPGKERELVAAISRSGGSTYYADSVKGRFTISRDTAKNTVYLQMNSLKPEDTAVYYCNAVRYLTRLGRYDYWGQGTQVTVSS,high polyreactivity
20,QVQLVESGGGLVQAGGSLSLSCAASGSTFSIYTMGWYRQAPGKERELVAVITKSGGSTYYADSVKGRFTISRDNAKNTVYLQMNSLKPEDTAVYYCAARRRGARHDYWGQGTQVTVSS,high polyreactivity
21,QVQLVESGGGLVQAGGSLRLSCAASGRTFSKNAMGWYRQAPGKERELVADISRRGGRTYYADSVNGRFTISRDNAKNTVYLQMNSLKPEDTAVYYCAARTYRQPYYILDYYWGQGTQVTVSS,high polyreactivity
22,QVQLVESGGCLVQAGGSLRLSCASSGIIIRKYAMGWYRQQPGKERELVAAITTRGSRTYYADSVKGRFTISRDNAKNTVYLQMNSLKPEDTAVYYCASDRYTVRMDYWGQGTQVTVSS,high polyreactivity

row,Sequence,polyreactivity (PSR sort gate)
1,QVQLVESGGGLVQAGGSLRLSCAASGRTFSGNTMGWYRQAPGKERELVAAISSGGSRTYYADSVKGRFTISRDNAKNTVYLLMNSLKPEDTAVYYCATVSTYYHYRRYDYWGQGTQVTVSS,high polyreactivity
2,QVQLVESGGGLVQAGGSLRLSCAASGSTFYYYTMGWYRQAPGKERELVASISGNVGSTSYADSVKGRFTISRDNAKNTVYLQMNSLKPEDTAVYYCNTDWGYYHSPDSDYWGQGTQVTVSS,low polyreactivity
3,QVQLVESGGGLVQAGGSLRLSCAASGFTFGSNAMGWYRQAPGKERELVAAITWDGGSTYYADSVKGRFTISRDNAKNTVYLQMNSLKPEDTAVYYCARYLYATYGKYNYWGQGTQVTVSS,high polyreactivity
4,QVQLVESGGGLVQAGGSRSLSCAASGRNFYYYTMGWYRQAPGKERELVAAISWGGVNTDYADSVKGRFTISRDNAKNTVYLQMNSLKPEDTAVYYCAAGRWSVGTYDYWGQGTQVTVSS,low polyreactivity
5,QVQLVESGGGLVQAGGSLRLSCAAYGRIFRYYAMGWYRQAPGKERELVVAISRSGSSTYYADSVKGRFTISRDNAKNTVYLQMNSLKPEDTAFYYCAAKLADQTRGTTSDSWGQGTQVTVSS,high polyreactivity
6,QVQLVESGGGLVQAGGSLRLSCAASGFTLLGYAMGWYRQAPGKERELVAAISYSGVSTDYADSVKGRFTISRDNAKNTVYLQMNSLKPEDTAVSYCIAVSTDSFLQDYNYWGQGTQVTVSS,low polyreactivity
7,QVQLVESGGGLVQAGGSLRLSCAASGLTFYSNSMGWYRPAPGKERELVAVISADGASTYYADSVKGRFTISRDNAKNTVYLQMNSLKPEDTAVYYCAARVSARGKGYYWGQGTQVTVSS,high polyreactivity
8,QVQLVESGGGLVQAGGSLRLSCAASGRTFKKYAMGWYRQAPGKEREVVAAITSRVGSTSYADSVKGRFTISRDNAKNTVYLQMNSLKPEDTAVYYCAARYSVGTGYGYWGQGTQVTVSS,high polyreactivity
9,QVRLVESGGGLVQAGCSRRLSCAATGRFFAYNSMGWYRQAPGKEMEWVAAISSTGGSTYYADSVKGRFTISRDNAKNTVYLQMNSLKTEDTAVYYCAAAWCYRYSSYDYWGQGTQVTVSS,low polyreactivity
10,QVQLVESGGGIVQAGGSLRLSCAASGRTFAYNVMGWYRHAPGKERELVAGISFGAGSTYYADSVKGRFTISRDNAKNTVYLQMNSLKPEDTAVYYCATRRRGTRYPRGYDYWGQGTQVTVSS,high polyreactivity
11,QVQLVESGGGLVQAGGSLRLTCAASGRTFWRYGMGWYRPAPVKETELVAAITDSVDSTNYADSVKGRFTISRDNAKNTVYLQMNSLKPEDTAVYYCAASDVVFALNGYYPGEDDYWGQGTQVTVSS,low polyreactivity
12,QVQLVESGGGLVQAGGSLRLSCAASGINFYDYAMGWYRQAPGKEREFVAAISWDGVSTYYADSVKGRFTISRDNAKNTVYLQMNSLKPEDTAVYYCAARAVTDDYYEFDYWGQGTQVTVSS,low polyreactivity
13,QVQLVESGGGLVQAGGSLRLSCAASGSTVGLYTMGSYRHAPGKEMELFAAISWSDGSTYYEDSVKGRFTISRDNAKNTVYLQMISLKPEDTAVYYCAAEFLYQQSSWEFDYWGQGTQVTVSS,low polyreactivity
14,QVQLVESGGCLVQAGGSLRLSCAASGSIFTTYAMGWYRQAPGKERELVAAISVSGSSTYYADSVKGRFTISRDNAKNTVYLQMNSLKPEDTAVYYCNKAFRSVRPRRRYDYWGQGTQVTVSS,low polyreactivity
15,QVQLVESGGGLVQAGGSLRLSCAASGRIFAFYALGWYIQAPGKERELVAAISWSDDITYYADSVKGRFTISRDNAKNTVYSQMNSLKPEDTAVYYCAYRRRGYAFSSDYWGQGTQVTVSS,high polyreactivity
16,QVQLVESGGGLVQAGGSLRLSCAASRITLNRNAMGWYRQAPGKERELVARISRRGGTTYYADSVKGRFTISRDNENNTVYLQMNSLKPEDTAVYYFNAGPYGGNPFDYWGQGPQVTVSS,high polyreactivity
17,QVQLVESGGGLVQAGGSLRLSCAASGITFQRYAMGWYRQAPGKVRELVAAITRRGGSTYYADSVKGRFTISRDNAKNTVYLQMNSLKPEDTAVYYCAADLFFKARGYDYWGQGTQVTVSS,high polyreactivity
18,QVQLVESGGGLVQAGGSLRLSCAASGSTFKPYAMGWYRQAPGKERELVAAISKSGGSTRYADSVKGRFTISRDNAKNTVYLQMNSLKPEDTAVYYCAADYIYVKYEYWGQGTQVTVSS,high polyreactivity
19,QVQLVESGGGLVQAGGSLRLSCAASGFNFTGYTMGWYRQAPGTERELVAAISSSGGSTYYADSVKGRFTISRDNAKNTVYLQMNSLKPEDTAVDYCNAPRYRPGYWYDYWGQGTQVNVSS,high polyreactivity
20,QVQLVESGGGLVQAGGSLRLSCAASGFIFVYYAMGWYRQAPGKERELVATISSSSASTYYADSVKGRFTISRDNAKNTVYLQMNSLKPEDTAVYYCAVLVSRYRYRVLDDSWGQGTQVTVSS,high polyreactivity
21,QVQLVESGGGLVQAGGSLRLSCAASGSIFSRYTMGWYRQAPGKERELVARINSSGTSTYYADSVKGRFTISRDNAKITVYLQMNSLKPEDTAVYYCARTSRHVRYDYWGQGTQVTVSS,low polyreactivity
